Experimental data: patent US9974753B2, “Nanoparticles comprising a vegetable hydrophobic protein and a water miscible non-volatile organic solvent and uses thereof” (BIONANOPLUS, S.L., priority 2012, dated 2018)

Assay: Solubility of zein in PG binary solvent mixtures (turbidity change at 405 nm)
Type: physicochemical
Procedure: The solubility of zein in different binary mixtures of PG and other water miscible non-volatile organic solvents that are miscible with PG was studied. This example studies the incorporation of different surfactants or solvents to enhance the solubility of a molecule in PG, if necessary. For this purpose, turbidity change of PG zein solution was monitored at 405 nm after the addition of different amounts of water, glycerol, Labrasol®, Tween® 80 or Lutrol® L 44 to 5 mL of zein solution in PG (2.5% w/v), at room temperature. The end point zone, at which zein was precipitated from PG solution, was calculated monitoring the turbidity change at 405 nm, that is, the absorbance increase (in percentage) after each solvent/surfactant addition with respect to the initial absorbance value in a spectrophotometer (Labsystems iEMS Reader MF, Finland).

## zein
Tween® 80 added to zein 2.5% w/v in PG
  End point range of zein precipitation from PG solution: 65-75 % (v/v)
Glycerol added to zein 2.5% w/v in PG
  End point range of zein precipitation from PG solution: 45-55 % v/v
